Key:
[1] = system: advanced metastatic hepatocellular carcinoma; assay: Single arm phase 2 first-line trial of bavituximab and immune checkpoint inhibitor, outcome by TME phenotype; assay type: in vivo, human; parameters: 6 month progression-free survival (6-month PFS): concentration or dose not given beside the values; details: all patients, first-line
Method: A single arm phase 2 clinical trial is run to determine whether advanced metastatic hepatocellular carcinoma tumor microenvironment phenotypes correlate to clinical responses when patients are treated with Bavituximab and an immune checkpoint inhibitor in the first-line setting. The analysis includes samples from 28 patients. RNA gene signatures are analyzed from tumor samples acquired before any treatments and TME phenotypes are determined. Patients are followed for clinical response, progression-free survival, and overall survival.
Hepatocellular carcinoma patients receive a regimen of Bavituximab plus an immune checkpoint inhibitor (anti-PD-(L)1—i.e., an inhibitor to PD-1 or PD-L1) therapy. […] Twenty-eight (28) patients are enrolled, with equal representation across the 4 stromal phenotypes (7 in each phenotype). The correlation between each TME phenotype is tested against clinical outcome data. In patients that are biomarker positive, represented by immune active (IA) and immune suppressed (IS) phenotypes, the use of the regimen of Bavituximab/immune checkpoint inhibitor confers benefit in comparison to patients classified as biomarker negative, comprised of angiogenic (A) and immune desert (ID) TME phenotype classes, as shown in the TABLE 31.

[2] = system: advanced colorectal cancers metastatic to liver (mCRC); assay: Phase 2 trial of navicixizumab, innate immune activating agent and PD-(L)1 agent (3L+), outcome by TME phenotype; assay type: in vivo, human; parameters: mPFS: unit not given beside the values; details: 3L+ mCRC
Description: A phase 2 clinical trial is run to determine clinical benefit in patients with advanced colorectal cancers metastatic to liver (mCRC) treated with a triplet combination of navicixizumab, an innate immune activating agent, and a PD-(L)1 agent. In this setting, regorafenib or trifluoridine/tipiracil therapy typically yield a median PFS (mPFS) of ˜2 months and median OS (mOS) of ˜7 months. […] The analysis includes enrollment of 60 patients with prospectively defined, retrospective analysis of liver metastatic lesions by the classifying the TME phenotypes as A, IA, IS or ID.
MSS+ advanced colorectal cancer patients (3L+) with liver metastases are treated with the triplet combination of navicixizumab, an anti-PD(L)1 therapy and an innate immune stimulating agent, such as the Dectin agonist Imprime PGG, the STING agonist BMS-986301 and the NLR agonist BMS-986299. ORR, mPFS, 3-month PFS rate, mOS and OS rate at 9 months are assessed across all TME phenotypes. […] patients received a greater clinical benefit than the standard of care for 3L+ mCRC with regorafenib or trifluoridine/tipiracil.

B1: Bavituximab/immune checkpoint inhibitor: bavituximab plus an immune checkpoint inhibitor (anti-PD-(L)1) (antibody, chains of the INN, looked up, V domains shown)
VH: EVQLQQSGPELEKPGASVKLSCKASGYSFTGYNMNWVKQSHGKSLEWIGHIDPYYGDTSYNQKFRGKATLTVDKSSSTAYMQLKSLTSEDSAVYYCVKGGYYGHWYFDVWGAGTTVTVSS
VL: DIQMTQSPSSLSASLGERVSLTCRASQDIGSSLNWLQQGPDGTIKRLIYATSSLDSGVPKRFSGSRSGSDYSLTISSLESEDFVDYYCLQYVSSPPTFGAGTKLELK
modifications: plus immune checkpoint inhibitor
6 month progression-free survival (6-month PFS) [1]: ~57.2%
Overall response rate (ORR) [1]: ~32%
overall survival (OS) [1]: ~20 months

B2: navicixizumab, an anti-PD(L)1 therapy and an innate immune stimulating agent (antibody, chains of the INN, looked up, V domains shown)
VH: QVQLVQSGAEVKKPGASVKISCKASGYSFTAYYIHWVKQAPGQGLEWIGYISNYNRATNYNQKFKGRVTFTTDTSTSTAYMELRSLRSDDTAVYYCARDYDYDVGMDYWGQGTLVTVSS
VL: DIVMTQSPDSLAVSLGERATISCRASESVDNYGISFMKWFQQKPGQPPKLLIYAASNQGSGVPDRFSGSGSGTDFTLTISSLQAEDVAVYYCQQSKEVPWTFGGGTKVEIK
VH2: QVQLVQSGAEVKKPGASVKVSCKASGYTFTNYWMHWVRQAPGQGLEWMGDINPSNGRTSYKEKFKRRVTLSVDKSSSTAYMELSSLRSEDTAVYFCTIHYDDKYYPLMDYWGQGTLVTVSS
VL2: B2 VL
modifications: with anti-PD(L)1 and innate immune stimulant
ORR ([2]; TME phenotype A (n = 12)): 25%
PFS rate (3 month) ([2]; TME phenotype A (n = 12)): 30%
mOS ([2]; TME phenotype A (n = 12)): 12 mos
mPFS ([2]; TME phenotype A (n = 12)): 6
ORR ([2]; TME phenotype IA (n = 12)): 35%
OS rate (9 month) ([2]; TME phenotype IA (n = 12)): 50%
PFS rate (3 month) ([2]; TME phenotype IA (n = 12)): 30%
mOS ([2]; TME phenotype IA (n = 12)): 12 mos
mPFS ([2]; TME phenotype IA (n = 12)): 6
ORR ([2]; TME phenotype ID (n = 24)): 20%
OS rate (9 month) ([2]; TME phenotype ID (n = 24)): 40%
PFS rate (3 month) ([2]; TME phenotype ID (n = 24)): 30%
mOS ([2]; TME phenotype ID (n = 24)): 10 mos
mPFS ([2]; TME phenotype ID (n = 24)): 4
ORR ([2]; TME phenotype IS (n = 12)): 30%
OS rate (9 month) ([2]; TME phenotype IS (n = 12)): 45%
PFS rate (3 month) ([2]; TME phenotype IS (n = 12)): 30%
mOS ([2]; TME phenotype IS (n = 12)): 11 mos
mPFS ([2]; TME phenotype IS (n = 12)): 5

— patent US20240344138A1, “TARGETED THERAPIES IN CANCER” (Feng Biosciences, Inc, priority 2021, published 2024)
